From article PMC7738868

Biological target: fibronectin with extra-domain B (EDB-FN) (human (endogenous in U87MG and U251MG)) (UniProt P02751)
Test: cellular uptake of rhodamine B-labelled micelles, confocal microscopy; U87MG and U251MG cells incubated 1 h at 37 °C with 100 µg/mL micelles holding 1.0, 2.5 or 5.0 wt% APTEDB-DSPE, washed with PBS, fixed; fluorescence normalised to DAPI (ImageJ); nontargeting PEG2000-DSPE micelles as …; also after EDB-FN siRNA in U87MG (uptake decreased) and over 5 min to 4 h

UniProt P02751, sequence (P02751 32-2477): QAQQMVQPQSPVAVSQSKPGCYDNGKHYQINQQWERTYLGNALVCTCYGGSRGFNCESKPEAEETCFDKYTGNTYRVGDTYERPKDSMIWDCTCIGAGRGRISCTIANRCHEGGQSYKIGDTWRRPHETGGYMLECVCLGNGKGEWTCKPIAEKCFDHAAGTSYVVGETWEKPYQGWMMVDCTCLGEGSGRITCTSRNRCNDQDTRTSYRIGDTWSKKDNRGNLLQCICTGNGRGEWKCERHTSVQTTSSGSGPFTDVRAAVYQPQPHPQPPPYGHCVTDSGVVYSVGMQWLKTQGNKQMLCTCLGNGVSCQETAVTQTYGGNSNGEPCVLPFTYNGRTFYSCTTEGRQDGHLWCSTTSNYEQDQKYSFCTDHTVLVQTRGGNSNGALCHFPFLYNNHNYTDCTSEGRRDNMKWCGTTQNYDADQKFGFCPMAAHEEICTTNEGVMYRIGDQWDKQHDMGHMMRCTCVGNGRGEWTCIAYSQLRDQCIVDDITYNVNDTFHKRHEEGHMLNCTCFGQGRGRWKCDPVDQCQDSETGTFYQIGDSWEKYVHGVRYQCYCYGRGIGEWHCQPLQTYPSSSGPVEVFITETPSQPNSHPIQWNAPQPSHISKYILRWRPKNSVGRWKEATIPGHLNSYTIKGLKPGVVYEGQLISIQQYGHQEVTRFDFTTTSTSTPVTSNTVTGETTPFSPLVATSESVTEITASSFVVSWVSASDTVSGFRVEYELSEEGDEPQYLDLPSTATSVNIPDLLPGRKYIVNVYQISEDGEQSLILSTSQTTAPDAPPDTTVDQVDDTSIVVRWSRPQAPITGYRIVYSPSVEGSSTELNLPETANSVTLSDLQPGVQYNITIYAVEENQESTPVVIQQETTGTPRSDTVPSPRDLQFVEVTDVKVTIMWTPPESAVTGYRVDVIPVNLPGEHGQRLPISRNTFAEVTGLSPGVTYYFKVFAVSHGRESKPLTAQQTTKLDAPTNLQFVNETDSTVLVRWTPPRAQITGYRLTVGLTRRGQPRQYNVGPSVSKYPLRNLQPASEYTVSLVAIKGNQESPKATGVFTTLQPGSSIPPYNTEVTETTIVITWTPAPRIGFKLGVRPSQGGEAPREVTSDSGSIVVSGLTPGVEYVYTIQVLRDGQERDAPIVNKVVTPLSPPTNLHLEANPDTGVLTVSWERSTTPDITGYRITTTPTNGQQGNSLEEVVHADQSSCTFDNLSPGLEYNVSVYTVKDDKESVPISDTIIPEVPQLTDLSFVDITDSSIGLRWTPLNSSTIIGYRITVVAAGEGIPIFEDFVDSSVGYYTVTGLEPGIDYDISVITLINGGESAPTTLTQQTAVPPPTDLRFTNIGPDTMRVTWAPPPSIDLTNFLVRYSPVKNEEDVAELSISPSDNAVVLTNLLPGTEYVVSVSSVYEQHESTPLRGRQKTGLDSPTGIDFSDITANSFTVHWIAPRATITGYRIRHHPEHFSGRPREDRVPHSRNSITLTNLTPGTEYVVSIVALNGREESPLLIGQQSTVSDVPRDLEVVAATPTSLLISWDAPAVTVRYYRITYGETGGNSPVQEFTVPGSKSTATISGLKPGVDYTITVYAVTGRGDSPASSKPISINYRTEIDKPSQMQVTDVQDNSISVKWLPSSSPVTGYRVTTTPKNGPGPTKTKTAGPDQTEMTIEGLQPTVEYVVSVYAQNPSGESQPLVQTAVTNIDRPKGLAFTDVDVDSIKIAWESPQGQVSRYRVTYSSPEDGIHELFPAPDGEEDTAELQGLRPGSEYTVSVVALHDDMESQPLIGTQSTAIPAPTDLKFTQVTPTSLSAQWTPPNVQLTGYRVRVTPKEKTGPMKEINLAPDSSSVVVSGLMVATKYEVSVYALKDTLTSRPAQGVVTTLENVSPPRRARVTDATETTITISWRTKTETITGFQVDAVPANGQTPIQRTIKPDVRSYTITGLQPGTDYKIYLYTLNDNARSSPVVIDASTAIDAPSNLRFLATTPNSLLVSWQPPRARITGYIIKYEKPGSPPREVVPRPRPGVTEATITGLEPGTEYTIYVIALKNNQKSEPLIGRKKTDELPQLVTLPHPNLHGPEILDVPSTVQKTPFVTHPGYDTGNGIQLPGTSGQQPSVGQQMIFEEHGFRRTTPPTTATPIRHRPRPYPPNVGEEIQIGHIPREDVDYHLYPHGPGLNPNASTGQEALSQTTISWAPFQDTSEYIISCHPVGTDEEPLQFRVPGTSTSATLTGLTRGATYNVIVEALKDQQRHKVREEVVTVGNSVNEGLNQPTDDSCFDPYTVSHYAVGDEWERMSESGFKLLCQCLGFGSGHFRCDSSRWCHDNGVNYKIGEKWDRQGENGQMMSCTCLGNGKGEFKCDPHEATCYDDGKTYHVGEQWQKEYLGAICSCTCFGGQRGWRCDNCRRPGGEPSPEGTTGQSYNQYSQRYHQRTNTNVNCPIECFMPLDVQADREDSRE

cellular uptake, fluorescence intensity normalised to DAPI (U87MG cells, 1.0 wt% APTEDB-DSPE): 166 A.U. | cellular uptake, fluorescence intensity normalised to DAPI (U87MG cells, 2.5 wt% APTEDB-DSPE): 93.2 A.U. | cellular uptake, fluorescence intensity normalised to DAPI (U87MG cells, 5.0 wt% APTEDB-DSPE): 56.7 A.U. | cellular uptake, fluorescence intensity normalised to DAPI (U251MG cells, 1.0 wt% APTEDB-DSPE): 76.4 A.U. | cellular uptake, fluorescence intensity normalised to DAPI (U251MG cells, 2.5 wt% APTEDB-DSPE): 129 A.U. | cellular uptake, fluorescence intensity normalised to DAPI (U251MG cells, 5.0 wt% APTEDB-DSPE): 53.4 A.U.
Substance: APTEDB-conjugated PEG2000-DSPE (EDB-FN-specific aptamer-like peptide on the surface of a micellar nano-DDS) (designed binder)
